Results on two substances are retold here after patent US20220040266A1.

For this assay, the target named is growth hormone receptor (GHR) on pancreatic cancer cells (human) (UniProt P10912). As to the kind of experiment: cell-based or functional assay.
Sequence of UniProt P10912 (P10912 19-638): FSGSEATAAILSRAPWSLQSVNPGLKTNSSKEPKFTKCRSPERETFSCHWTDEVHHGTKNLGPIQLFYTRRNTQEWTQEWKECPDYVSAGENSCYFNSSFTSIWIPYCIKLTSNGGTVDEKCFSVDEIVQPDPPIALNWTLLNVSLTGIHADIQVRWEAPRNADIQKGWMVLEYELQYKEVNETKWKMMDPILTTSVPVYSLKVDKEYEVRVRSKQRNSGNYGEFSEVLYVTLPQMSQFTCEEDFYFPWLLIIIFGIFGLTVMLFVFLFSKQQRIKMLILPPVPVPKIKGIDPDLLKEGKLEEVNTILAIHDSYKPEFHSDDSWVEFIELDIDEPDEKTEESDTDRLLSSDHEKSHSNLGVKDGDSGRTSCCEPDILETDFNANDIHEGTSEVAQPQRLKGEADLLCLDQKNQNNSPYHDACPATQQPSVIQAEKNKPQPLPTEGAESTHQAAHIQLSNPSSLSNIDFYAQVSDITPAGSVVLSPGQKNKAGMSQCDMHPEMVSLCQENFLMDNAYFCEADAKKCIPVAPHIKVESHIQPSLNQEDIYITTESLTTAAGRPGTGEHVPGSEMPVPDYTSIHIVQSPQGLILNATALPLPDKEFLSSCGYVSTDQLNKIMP

As for “Compound G (hGHR antagonist hGH-G120K having T142 and H151 changed to cysteine and having both added cysteines conjugated with dPEG-A) (from UniProt P01241 27-217) (ligand)”, the drug efflux rate (DiOC2 dye), pancreatic cancer cells, 120 minutes was found to be 2 fold and the percentage of drug retention after 120 minutes, pancreatic cancer cells is 83%.

pegvisomant (SOMAVERT) (ligand) came in with a drug efflux rate (DiOC2 dye), pancreatic cancer cells, 120 minutes of 2 fold and a percentage of drug retention after 120 minutes, pancreatic cancer cells of 83%.
